# Assay results from patent publication US20120322122, “COMPOSITIONS AND METHODS FOR IMPROVED PLANT FEEDSTOCK” (published 2012).
# T1: PvMYB4a (Panicum virgatum)
# T1 chain: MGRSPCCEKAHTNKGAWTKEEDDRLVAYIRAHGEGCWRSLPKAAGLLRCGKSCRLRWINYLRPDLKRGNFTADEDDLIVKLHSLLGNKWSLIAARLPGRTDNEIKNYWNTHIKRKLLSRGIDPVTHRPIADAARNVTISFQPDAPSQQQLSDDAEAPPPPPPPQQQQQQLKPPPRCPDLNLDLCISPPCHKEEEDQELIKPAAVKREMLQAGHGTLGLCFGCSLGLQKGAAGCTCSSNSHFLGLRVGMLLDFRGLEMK
# Biological target: T1, PvMYB4a
# Assay: EMSA; 5 mM MgCl2, 50 mM KCl, pH 7.5, 4 C
# Settings: tags: N-terminal His (pDEST17), E. coli BL21 DE3; label: biotin
# Experimental: The present and previous studies indicate that subfamily 4 MYB proteins directly bind the AC cis-elements in downstream monolignol biosynthesis gene promoters (Legay et al., 2007; Sonbol et al., 2009). […] Gel shift assays were performed to test for possible direct binding of PvMYB4 to different AtGA20-ox2 promoter regions in vitro. Analysis of the AtGA20-ox2 promoter 1500 bp upstream of the transcription start site identified an AC-II (−1200 bp) and an AC-IV (−150 bp) element. […] This is consistent with the direct binding of PvMYB4 to the synthetic AC-II elements (FIG. 4F). Binding of PvMYB4 to the AC elements in the GA20-ox promoter appears to inhibit expression of the gene.
# PvMYB4a was cloned into the pDEST17 expression vector by the Gateway cloning method (Invitrogen). After sequencing, the plasmid was transformed into BL21 DE3 E. coli competent cells. IPTG was added to induce expression of PvMYB4. The recombinant protein was purified with the MagneHis™ Protein Purification System (Promega Corporation, Madison, Wis.) then concentrated with an Amicon Ultra-15 Centrifugal Filter (Millipore Corporation, Billerica, Mass.). About 700-1000 ng of purified PvMYB4 protein was used for EMSA in each reaction. […] The DNA was transferred onto Nylon membranes and signal detected with a LightShift® Chemiluminescent EMSA Kit (Thermo Fisher Scientific Inc. Rockford, Ill.) using standard protocols.
row,Binder,binding result
1,AtGA20ox2 promoter AC-IV (dsDNA) DNA 1: ATTATAAGAAAGATTAAAAAACCAAACAAATGTACACTAACATGACT DNA 2: AGTCATGTTAGTGTACATTTGTTTGGTTTTTTAATCTTTCTTATAAT,no binding
2,AtGA20ox2 promoter AC-II (dsDNA) DNA 1: CTTAACTCTTAACTGGTCGAACCAACCATGAATGATTTGGGCATAAT DNA 2: ATTATGCCCAAATCATTCATGGTTGGTTCGACCAGTTAAGAGTTAAG,binds

# Biological target: T1, PvMYB4a
# Assay: EMSA; 5 mM MgCl2, 50 mM KCl, pH 7.5, 4 C
# Settings: tags: N-terminal His (pDEST17), E. coli BL21 DE3; label: biotin
# Remark: another data set of the same source
# Experimental: PvMYB4a was cloned into the pDEST17 expression vector by the Gateway cloning method (Invitrogen). After sequencing, the plasmid was transformed into BL21 DE3 E. coli competent cells. IPTG was added to induce expression of PvMYB4. The recombinant protein was purified with the MagneHis™ Protein Purification System (Promega Corporation, Madison, Wis.) then concentrated with an Amicon Ultra-15 Centrifugal Filter (Millipore Corporation, Billerica, Mass.). About 700-1000 ng of purified PvMYB4 protein was used for EMSA in each reaction. The probes were labeled by annealing biotin-labeled olignucleotides or PCR products, then purified with a gel extraction kit (QIAGEN). Binding conditions were 12 mM Tris-HCl (pH 7.5), 20 mM NaCl, 50 mM KCl, 5 mM MgCl₂, 1 mM DTT, 0.2 mM EDTA, 2.5% glycerol, 1 mM β-ME, 0.05% NP-40 and 2 fmol biotin-labeled probes. The samples were loaded and run in a 6% DNA retardant gel (Invitrogen) in the cold room after the reactions had been incubated at 4° C. for 30 minutes. The DNA was transferred onto Nylon membranes and signal detected with a LightShift® Chemiluminescent EMSA Kit (Thermo Fisher Scientific Inc. Rockford, Ill.) using standard protocols.
row,Binder,binding result
1,AC-I x3 EMSA probe (dsDNA) DNA 1: CGGTACCAGTCCACCTACCGCCACCTACCGCCACCTACCGCTGTTCTCGA DNA 2: TCGAGAACAGCGGTAGGTGGCGGTAGGTGGCGGTAGGTGGACTGGTACCG,binds
2,AC-II x3 EMSA probe (dsDNA) DNA 1: CGGTACCAGTCCACCAACCGCCACCAACCGCCACCAACCGCTGTTCTCGA DNA 2: TCGAGAACAGCGGTTGGTGGCGGTTGGTGGCGGTTGGTGGACTGGTACCG,binds
3,AC-III x3 EMSA probe (dsDNA) DNA 1: CCAGTCCACCTAACTCTACCTAACTCTACCTAACGCTGTTC DNA 2: GAACAGCGTTAGGTAGAGTTAGGTAGAGTTAGGTGGACTGG,binds
4,AC-IV x3 EMSA probe (dsDNA) DNA 1: CCAGTCCACCAAACTCTACCAAACTCTACCAAACGCTGTTC DNA 2: GAACAGCGTTTGGTAGAGTTTGGTAGAGTTTGGTGGACTGG,no binding
